Experimental data taken from US20240374603A1, “PHARMACEUTICAL PREPARATION, PREPARATION METHOD THEREFOR AND USE THEREOF” (COHERENT BIOPHARMA (SUZHOU) LIMITED, priority 2021, published 2024).
*1 amine or outer side, *2 acyl side, *3 side chain or, on linkers, in order; H or OH if unused. Where a SMILES comes first, the peptide text is derived from it. Bridges are numbered along the chain shown (N, C = ends). Roman numbers before positions name the chains, in order. [ ]: non-standard residue; d: D form. The star is where a group is joined. ξ: configuration not given here. Hexanoyl(6-succinimido-3yl) = O=C1CC([*:1])C(=O)N1CCCCCC(=O)[*:2]; Pteroyl = Nc1nc2ncc(CNc3ccc(C(=O)*)cc3)nc2c(=O)[nH]1; Dolaproine(all-ξ) = COC(C(C)C(=O)[*:2])C1CCCN1[*:1]; X1 = CCC(C)C(C(CC(=O)[*:2])OC)N(C)[*:1]; γGlu = O=C(O)[CH](CCC(=O)[*:2])N[*:1]; PABC = O=C(OCc1ccc(N[*:1])cc1)[*:2]; Cit = NC(=O)NCCC[CH](N)C(=O)O; NMeV = CN[CH](C(=O)O)C(C)C; X2 = CC(N*)C(O)c1ccccc1

Legend:
[1] = pH confirmation in freeze-dried form, stability at 30° C. for 1 month; type: physicochemical; settings: pH range of 6.9 to 7.7, 30° C. for 1 month
Description: An aqueous solution containing LDC10B (5 mg/mL), mannitol (40 mg/mL), sucrose (10 mg/mL) and tromethamine (0.765 mg/mL) was prepared, and the pH was adjusted to 6.9, 7.3 and 7.7 with dilute hydrochloric acid, respectively; the resulting solutions were filtered and sub-packaged into vials, half of a stopper was pressed into the vial, freeze-drying was performed, and the vials were capped. The stability of each sample was investigated at 30° C. for 1 month.

[2] = Final prescription and process confirmation, stability at 25° C. and 40° C.; type: physicochemical; settings: final prescription (Example 7); for % Moisture / % Total impurity / Re-dissolution time s: freeze-dried; for pH value: re-dissolution pH
Description: In view of the results of the prescription screening experiment, the prescription process confirmation experiment was carried out to investigate the stability of the final prescription.

With `CCC(C)C(C(CC(=O)N1CCCC1C(OC)C(C)C(=O)NC(C)C(O)c1ccccc1)OC)N(C)C(=O)C(NC(=O)C(C(C)C)N(C)C(=O)OCc1ccc(NC(=O)C(CCCNC(N)=O)NC(=O)C(NC(=O)CCCCCN2C(=O)CC(SCC(NC(=O)CCC(NC(=O)c3ccc(NCc4cnc5[nH]c(N)nc(=O)c5n4)cc3)C(=O)O)C(=O)NC(CCCCN)C(=O)NC(CCC(=O)O)C(=O)NC(Cc3ccccc3)C(=O)NC(CC(C)C)C(=O)NC(Cc3cnc[nH]3)C(=O)N3CCCC3C(=O)NC(CO)C(=O)NC(CCCCN)C(=O)NC(C(=O)NC(CC(=O)O)C(=O)NC(CC(C)C)C(=O)N3CCCC3C(=O)NC(CCCNC(=N)N)C(=O)O)C(C)C)C2=O)C(C)C)cc1)C(C)C` (stereo not shown) [LDC10B] (I: {Pteroyl-γGlu}-CKEFLHPSKVDLPR-OH / II: V[Cit][PABC][NMeV]V[X1][Dolaproine(all-ξ)]-X2; linker I:1-II:N via Hexanoyl(6-succinimido-3yl); configuration not given here) the “quality of the freeze-dried preparation” value [1] was “stable”, the “% Moisture” value ([2]; 25° C., 0 day) was 0.42% and the “% Total impurity” value ([2]; 25° C., 0 day) was 0.44%. The Re-dissolution time s ([2]; 25° C., 0 day) was 160 s, the “% Moisture” value ([2]; 25° C., 1 month) was 1.79% and the “% Total impurity” value ([2]; 25° C., 1 month) was 0.51%. For the same molecule, the Re-dissolution time s ([2]; 25° C., 1 month) was 154 s, the “% Moisture” value ([2]; 25° C., 2 months) was 1.97% and the “% Total impurity” value ([2]; 25° C., 2 months) was 0.61%. For the same molecule, the Re-dissolution time s ([2]; 25° C., 2 months) was 114 s, the “% Moisture” value ([2]; 25° C., 3 months) was 2.19% and the “% Total impurity” value ([2]; 25° C., 3 months) was 0.81%. For the same molecule, the Re-dissolution time s ([2]; 25° C., 3 months) was 174 s, the “% Moisture” value ([2]; 25° C., 6 months) was 2.62% and the “% Total impurity” value ([2]; 25° C., 6 months) was 1.21%. The Re-dissolution time s ([2]; 25° C., 6 months) was 128 s, the “% Moisture” value ([2]; 40° C., 0 day) was 1.2% and the “% Total impurity” value ([2]; 40° C., 0 day) was 0.33%. For the same molecule, the Re-dissolution time s ([2]; 40° C., 0 day) was 148 s, the “% Moisture” value ([2]; 40° C., 5 day) was 1.0% and the “% Total impurity” value ([2]; 40° C., 5 day) was 0.48%. The Re-dissolution time s ([2]; 40° C., 5 day) was 139 s, the “% Moisture” value ([2]; 40° C., 10 day) was 1.2% and the “% Total impurity” value ([2]; 40° C., 10 day) was 0.54%. For the same molecule, the Re-dissolution time s ([2]; 40° C., 10 day) was 118 s, the “% Moisture” value ([2]; 40° C., 30 day) was 1.8% and the “% Total impurity” value ([2]; 40° C., 30 day) was 0.69%. The Re-dissolution time s ([2]; 40° C., 30 day) was 135 s, the pH value ([2]; 25° C., 0 day) was 7.4 and the pH value ([2]; 25° C., 1 month) was 7.5. It also gave a pH value ([2]; 25° C., 2 months) of 7.2, a pH value ([2]; 25° C., 3 months) of 7.4 and a pH value ([2]; 25° C., 6 months) of 7.3. The pH value ([2]; 40° C., 0 day) was 7.4, the pH value ([2]; 40° C., 5 day) was 7.1 and the pH value ([2]; 40° C., 10 day) was 7.3. The pH value ([2]; 40° C., 30 day) was 7.4.
